What was measured:
[1] = biological target: T1, misfolded/unfolded Wil λ light chain (human); experiment: microscale thermophoresis, labeled antibody
T1 construct: mature; Soluble misfolded form made from native Wil; Biotinylated in the capture ELISA; also called misfolded Wil; Wil (misfolded)
Experimental: (§1) FIGS. 7A and 7B are line graphs illustrating the results of binding of misfolded (FIG. 7A) or amyloid (FIG. 7B) Wil to muLX-97 measured by MST (microscale thermophoresis).
(§2) Next, the binding affinity of muLX-97 to amyloid forms of λ light chains was determined. A true affinity to aggregates could not be measured using previously described methods where either the antibody or target is immobilized, so microscale thermophoresis (MST) was used. In this method a small spot in a capillary containing fluorescently labeled antibody in the presence or absence of target is irradiated with an infrared laser. The local heating causes migration of protein out of the heated spot and the rate of migration change (due to the antibody binding to a ligand) can be used to measure the affinity. Using the NanoTemper Monolith, binding of muLX-97 to misfolded and amyloid forms of Wil was quantified, with results shown in FIG. 7.

[2] = biological target: T2, aggregated/amyloid Wil λ light chain (human); experiment: microscale thermophoresis, labeled antibody
T2 construct: mature; Aggregate of many chains; Conjugated to pHrodo in the phagocytosis assay; also called Wil amyloid; amyloid/aggregated Wil
Experimental: as §1, §2

[3] = biological target: transthyretin (ATTR) amyloid in cardiac tissue (human, UniProt P02766 21-147); experiment: immunohistochemistry on patient tissue
[4] = biological target: T3, islet amyloid polypeptide (IAPP) amyloid in pancreatic tissue (human, UniProt P10997 34-70); experiment: immunohistochemistry on patient tissue
T3 construct: Pathological control tissue in immunohistochemistry; also called IAPP amyloid pancreatic tissue
T3 chain (looked up): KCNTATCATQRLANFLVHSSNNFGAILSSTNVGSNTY

[5] = biological target: T1, misfolded/unfolded Wil λ light chain; experiment: bio-layer interferometry
Experimental: (§3) FIGS. 6A-6F are bio-layer interferometry sensorgrams of binding interactions between clone 1 (muLX-97) to misfolded (FIGS. 6A, 6B, 6C) and native (FIGS. 6D, 6E, 6F) conformations of Wil (FIGS. 6A, 6D), H3 (FIGS. 6B, 6E), and FOR102 (FIGS. 6C, 6F) lambda light chain variants. Binding of muLX-97 with its misfolded Wil at a range of target concentrations was measured by changes in wavelength (nm) over 720 seconds (120 s association, 600 s dissociation). Association and dissociation curves were fit using Octet Systems Software to determine KD.
(§4) The binding affinity of muLX-97 to multiple λ light chain variants in misfolded and native conformations was then measured. In addition to Wil, two light chain variants sequenced from cardiac amyloid deposits in light chain amyloidosis patients were selected. See Oberti L et al. Concurrent structural and biophysical traits link with immunoglobulin light chains amyloid propensity. Sci Rep. 2017 Dec. 1; 7(1):16809 and Baur J et al. Identification of AL proteins from 10λ-AL amyloidosis patients by mass spectrometry extracted from abdominal fat and heart tissue. Amyloid. 2023 March; 30(1) 27-37. […] In native conformations of all variants, only weak binding (limited BLI signal, at very high concentration of 1000 nM) was observed. This limited association may be due to the presence of small amounts of misfolded Wil contaminating the ‘native’ sample.

[6] = biological target: T4, misfolded H3 λ light chain (human); experiment: bio-layer interferometry
T4 construct: also called H3 (misfolded)
Experimental: as §3, §4

[7] = biological target: T5, misfolded FOR102 λ light chain (human); experiment: bio-layer interferometry
T5 construct: also called FOR102 (misfolded)
Experimental: as §3, §4

[8] = biological target: T2, aggregated/amyloid Wil λ light chain; experiment: cell-based or functional assay
[9] = biological target: T1, misfolded/unfolded Wil λ light chain; experiment: capture ELISA, antibody captured by anti-mouse Fc, biotinylated Wil in solution
From the text: All the candidate mAbs detected both misfolded/unfolded and amyloid/aggregated Wil. […] It was suspected that the Western blotting and indirect ELISA methods, which immobilizes the ‘native’ Wil protein to a surface, can lead to false-positive binding to the native protein by inducing some degree of misfolding, which would not be detected by the clones that bound weakly (clones 3-5). As such, a capture format ELISA was used to interrogate the binding behavior of clones 1 and 2. In this format, a goat anti-mouse Fc capture antibody was coated into the ELISA wells, and clones 1 or 2 are captured by the antibody with their Fabs aligned to the appropriate orientation. Then, native, or misfolded forms of biotinylated Wil is added to these wells and binding is measured by streptavidin. […] Based on the above data, clone 1 was selected as the lead candidate for subsequent characterization (henceforth referred to as muLX-97).

[10] = biological target: T1, misfolded/unfolded Wil λ light chain; experiment: microscale thermophoresis, labeled antibody; remark: listed apart in the source
Experimental: as §1, §2

- Kd [1]: 0.061 µM
- Kd [2]: 0.087 µM
- binding result [3]: no binding
- binding result [4]: no binding
- Kd [5]: 0.059 µM
- Kd [6]: 0.317 µM
- Kd [7]: 0.065 µM
- EC50 of phagocytic uptake of pHrodo-labeled amyloid Wil (% pHrodo-positive cells), J774.1 cells [8]: ~7 nM
- EC50 of phagocytic uptake of pHrodo-labeled amyloid Wil (% pHrodo-positive cells), RAW 264.7 cells [8]: ~20 nM
- Kd [9]: 0.069 µM
- Kd [10]: 0.0619 µM
B1: muLX-97 (clone 1) (antibody, V domains shown)
VH: DVKLVESGGGLVKLGGSLKLSCAASGFTFSSYYMSWVRQTPEKRLELVAAINSNGGNTYYPDTVKGRFTISRDNAKNTLYLQMSSLKSEDTALYYCARLPFDYWGQGTTLTVSS
VL: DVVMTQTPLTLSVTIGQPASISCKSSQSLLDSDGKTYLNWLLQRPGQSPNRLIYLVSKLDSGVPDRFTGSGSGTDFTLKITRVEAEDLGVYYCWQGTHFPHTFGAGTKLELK
modifications: Antibody fluorescently labeled in the MST assay; dye and site not stated.
notes: Murine monoclonal antibody from a hybridoma, purified from mouse ascites fluid; Fluorescently labeled in the MST assay

— patent US20250326864A1 (PARADOX IMMUNOTHERAPEUTICS, published 2025)
